Measured values from the DeepSol protein solubility set.

Assay: soluble on expression in E. coli; label from the status in PepcDB or PDB records

| Sequence | soluble on expression in E. coli |
| --- | --- |
| MKKFFMASLLGSAIALCTTAMAASTDLKALEDAARKEGTVNSVGMPDAWANWKGTWEDLASKYGLKHSDTDMSSAQELAKFEAEKDNASADIGDVGAAFGPIAVTKGVSQPYKPSTWDQVPEWAKDKDGHWALAYTGTIAFIINKDLVKEEERPKTWHDLEKGKYKVAIGDVGTAAQAANGVLAAAIAYKGDESNVAPGLQLFTKLAQQKRLSLANPTIQTLEKGEVEVGVVWDFNGLSYREQIDPKRFEVLIPSDGSVISGYTTVINKYAKHPNAAKLTREYIFSDAGQINLAKGHARPIRAEHLKLPADVQAKLLPNDQYAAAQPIKNAEAWEATSKKLPQMWQEQVIIEME | not soluble |
| MSLSSPNLSFYYNECERFESFLKNHHLHLESFHPYLEKAFFEMVLNGGKRFRPKLFLAVLCALVGQKDYSNQQTEYFKIALSIECLHTYSLIHDDLPCMDNAALRRNHPTLHAKYDETTAVLIGDALNTYSFELLSNALLESHIIVELIKILSANGGIKGMILGQALDCYFENTPLNLEQLTFLHEHKTAKLISASLIMGLVASGIKDEELFKWLQAFGLKMGLCFQVLDDIIDVTQDEEESGKTTHLDSAKNSFVNLLGLERANNYAQTLKTEVLNDLDALKPAYPLLQENLNALLNTLFKGEGHHHHHH | soluble |
| MKLTDRLLKIASLVSDGKKIADIGTDHGYIPVYLLKEGKVPFAVLADVNKGPLDNAHKEVIQNNLLDKVDLRLGSGIEILEIGEVEEVIIAGMGGILISELLEAKKEVAHNVEKLILQPMQAQEELRYYLLNNGYEILEEVLVREDFRIYEIIVAKYTGKNTIIEDEIYYEVGIKLLENKDSLFNDFIEKKIKTYSSIVNKLEGKNGEAIDKKRKESEVAIKKLENLIK | not soluble |
| MTESNGNSEITTTEGNTGPVVESSLDPLAGRPEQSEDDIAKASDVEEYLRDVIDPELGINVVDLGLVYDIWMEGSIHAHVNMTLTSPACPLTDVIEDQAESAVVGNKVAETLTIHWVWMPPWGPHMITEDGREQLRALGFSV | not soluble |
| MAHHHHHHMEGARGSTLQVCGERHTMSLSLATALYADATRLYRLGDLHHARGAAEEALLSLSHSPHSDISDHTNHRHGDAHHEEAADSVSVGCEGSQAQQRQRHRLFGNTLLLLSSIYMAVQDYAEAERLLVTCDGYWRERLTSTHTRLSSVGTSAEVECACCSELDEGLAGVAYNRAVLRLEQLRRTPSFPASRDDGELWVAPPADLCGTDARLTYSLIPLSSTAASSGTPETLLASVMALLLDAQDRLAHTLGPPRGLLADVLHTIGVCHYEAADYIAALQAWQRSMAIRVHLQALRRRSDKNAAQRALHGGGGGECGDGTEELKLALTMEHVAQVYRLLEGRSVEALKLLDTVAATRRRYLGPTDPLCVRTLVLKGVLAAELGHTQLARALLERCSAIGGDASPETPPPSSSAYAVQEVEQ | soluble |
| MAHHHHHHMKKPEHVRNIVYEIKRKVQIPVSVKIRTGVDDCDSFPFLRSFIECVSSVGCTHFIVHARKAWLKGLDPKQNRSVPPLQYSKVYTLCQLYPHLKFTLNGGIKTIEEAVALLNGYLPREDKCDGEKTYVQVQNYHVNPLNGVMLGRACMENTTVLSQTDQLVYNEKPPHTAFSRRTVLDAYKSYLEENSSLCSLSSAFELLKPILGILKGMPGHRIFRNKVDMYIRNYSSTLPCSGILEKAMVDVDAVAPGCLDLPLADYKLQQEYIKNY | not soluble |
| GPGSMDTLTHLSHTLREAMSDIVPESHPEHPFNLIPELCRKFYDLGWATGTGGGISIKMGENYYIAPSGVQKERIKPNEIFVLNASQDVVEEPRTEKQLKISECTPLFFNAYRMRGAGACLHTHSANCVLISLLCDREFRISHIEMIKGIINNETKKALGFRDTLVIPIIENTDFERDLTASMAECMERYPESCAVLVRRHGMYVWSDTWQKAKGAVECIDYLMGLAIRMRTLGLEWEPKDVK | soluble |
| SLGWIKRLIRMVFQQVGVSMQSVLWSRKPYGSSRSIVRKIGTNLSLIQCPRVQFQINSHATEWSPSHPGEDAVASFADVGWVAKEEGECSARLRTEVRSRPPLQDDLLFFEKAPSRQISLPDLSQEEPQLKTPARANEEALQKICALENELAALRAQIAKIVTQQEQQNLTAGDLDSTTFGTIPPHPPPPPPPLPPPALGLHQSTSAVDLIKERREKRANAGKTLVKNNPKKPEMPNMLEILKEMNSVKLRSVKRSEQDVKPKPVDATDPAALIAEALKKKFAYRYRSDSQDEVEKGIPKSESEATSERVLFGPHMLKPTGKMKALIENVSDS | not soluble |
| MGSDKIHHHHHHMIDLRSDTVTKPTEEMRKAMAQAEVGDDVYGEDPTINELERLAAETFGKEAALFVPSGTMGNQVSIMAHTQRGDEVILEADSHIFWYEVGAMAVLSGVMPHPVPGKNGAMDPDDVRKAIRPRNIHFPRTSLIAIENTHNRSGGRVVPLENIKEICTIAKEHGINVHIDGARIFNASIASGVPVKEYAGYADSVMFCLSKGLCAPVGSVVVGDRDFIERARKARKMLGGGMRQAGVLAAAGIIALTKMVDRLKEDHENARFLALKLKEIGYSVNPEDVKTNMVILRTDNLKVNAHGFIEALRNSGVLANAVSDTEIRLVTHKDVSRNDIEEALNIFEKLFRKFS | soluble |
| VRMILDTIPKKNRHLVTTHDGYSYLGDAYGLSIAGFVSPNPSVEPSPRDIIALTRTLENLHVPAVFIEPQLALRANHLTVTADKLGIQVCRIYGDSLDDEVPTYLDFMKYNAHSLARCLGQSEGK | not soluble |
| MRTAEFWIGRLGLERHPEGGWYRETYRSEGSYGFNGNSPFGSPRSYATSIFYLLEHGDRSRLHRIRSDEQWYFHAGSPLDVHCFPETGDPSLFTLGDDPNAGQVLHSWVSAGHWFGASLSEQADAPGTYALVSCVVAPGFDFRDLTFADPAALTAQFPAHAQIIEKLSLEHHHHHH | soluble |
| MSWREKLGMIHIYTGNGKGKTTAALGLALRMLGSGGKVIIIQFMKAPKVYGEYFMAEKCNFKIESYGLPKFVHGKPDEEDIKAAKRALERAREVVKSGEWDLVILDEICVALGFGMLNIEEVKELIQEKAKNTELVLTGRYCPKELYELADYVTEMREIKHPYQRGILARRGVEY | soluble |
| MKRFGRFAGIALVLVVAALTARSCFSHDLIVRLSDRKEISFKQMMGDLRKVAVIYVGEVHDNPDHHVLQLRIIRGLHRAGVPLAIGMEMFTAGSQQELDRWVAGQTGTAAFQRIYRREWNLPWSLYGDILLFARDKRIPLIGLNVPRDITRKVGREGFASLTEDERRKLPPNITCDVDESYMAMIHRSYSSHGLSANTFRNFCEAQMLWNKSMAYHMVEYLRKNPGRTVVVITGGGHAIRGGMPVQVDRERPGLSSRVVLPDPVVRNGRIKAEEADYLWLSHLEHHHHHH | not soluble |
| MGSDKIHHHHHHMKVQRIQAIENLIHEKGSASLDDLCKQFNVSKNTIRRDIAKLLQKNTIKKVYGGVVSIYNNPEEIRPFENRDTENHAEKQLIGKAAADFIEENDLIFIDSGTTTSCLAAALPTDKEITIITNSLDVINFASEMDNVKLIVIGSTFKTSTKSFVGVENWGFFEKYNITKAFMAATALSTTHGVMNSDILEYEIKRHMMEKAREKFLLVDHTKVDKSALLTYGELAEFDWLVTSKEMAGGCLGYCADVGVLVRLV | not soluble |
| MKQKVVSIGDINVANDLPFVLFGGMNVLESRDLAMRICEHYVTVTQKLGIPYVFKASFDKANRSSIHSYRGPGLEEGMKIFQELKQTFGVKIITDVHEPSQAQPVADVVDVIQLPAFLARQTDLVEAMAKTGAVINVKKPQFVSPGQMGNIVDKFKEGGNEKVILCDRGANFGYDNLVVDMLGFSIMKKVSGNSPVIFDVTHALQCRDPFGAASGGRRAQVAELARAGMAVGLAGLFIEAHPDPEHAKCDGPSALPLAKLEPFLKQMKAIDDLVKGFEELDTSK | soluble |
| MIQFKNISKHYQLKGQTIHALDQINLDIPAGSIFGIIGYSGAGKSTLIRLINLLERPTHGQIIINQKDFTALNAQSLRQERANIGMIFQHFNLLQTKTVAANIEMPLKLLGYSKIEREKRLMELLDFIDLTHKKDAFPDELSGGQKQRVGIARALANHPKILLCDEATSALDPQTTKSVLALLKKINKEQGITIVMVTHEMDVIESICDHVAVMESGHVIETGPTVEIFSNPQHPTTKTFIQTVLQQHLPVNILSKLEHQHHHSIYRLQFLGKSAQEPVIQSMIKQFDISLNILFANMTEIDGTVIGQMFVQLLGDDTLIQQAIEFLERHGVSVNQSGEQV | not soluble |
| SNAVRQVEEYIEANWMRPITIEKLTALTGISSRGIFKAFQRSRGYSPMAFAKRVRLQHAHNLLSDGATPTTVTAAALSCGFSNLGHFARDYRDMFGEKPSETLQRARP | soluble |
| YAGTSDAPYTGGFMNTFNYRNWELNLNFSYNLGAHVKTDPTYYIADPDPGRNMNRDILDRWTPENKNGKFPALTSLNTNPADYYLFSTRRDLYKSLDIWVKKLSYIRLQNIRLAYHFPSEWLHKLNIGGATVGLEARNLFVFGSSYKNYMDPESMSNLYSTPVPKSVTFNLSLNF | not soluble |
| MIQKGLEGVKICESSICYLDGINGRLYYRGIPVEELAEKSTFEETAYFLWYGKLPTKSELEEFKRKMADYRELPAEALGILYHLPKNLHYIDVLKIFLSIHGSMDGNDEDLREKAIRVASVFPTILAYYYRYSKGKELIRPRKDLSHVENFYYMMFGERNEKIRLLESAFILLMEQDINASTFAALVIASTLSDLYSCIVGALGALKGPLHGGASEKVPPMLEEIGSEDRVEEFVQKCLKEKRKIMGFGHRVYKTYDPRAVFLKRVLQEHFPDSKLFRIASKLEEYIVSNKIKNIYPNVDLYSSVLFEELGFPRNMFTALFATARVVGWTAHVIEYVSDNKLIRPTSEYVGPMDVEYIPIERRDENG | soluble |
| MGSDKIHHHHHHVKRRLNPLEAYLVVMSNADRAGGLVLAATPKMKQEHHIKTGSRMYELPTWDKRIIIAPPRMKLYLKVNAMIQAIFRRYVPAEFIHVYSIDECFLDITGSHLLFGSTEEIVRKIQRDILEELRLYVTVGIGDNPLLAKLALDNVAKNRDDGIAEWRYEDVPETIWKIRHLDDVCGIGRRTAIRLQKMGIFNMYQLSQTPPQVLKNAMGVVGEQLYYHAHGIDYSLLNEKYVPVSKSYGKSQILEKDYHIPAEVEIVIREMVEEVAMRLRQNHVDTEVIHLSIGYSKYSIKKGFSHQAKIPSTSSSHALIPYFLQLFRRYDEREPVRSIAISCGKLTLKTGLQLNLFEDATRTLNHEQLEVTVDKIRTRYGFKSLMHASSLLNGATGLKRSEMVGGHKG | not soluble |
| GSMNPEEKTVMLYNEYAEQAVLGSILTEPELIKECPLTPEHFSPGKHFNIYFTMQDLDRKGQSVDFTSIAARVGEKLPQLGGFGYLTELAASVASTTTFKQHCQTVSEYFQKRKAISIAQQIIENVNESDDGPVKPIQEAVSELMEIEASGTDDDDGSIDEALVTVYEEIESADGNITGVPSGFTELDRMTYGYKRRNFVLIAARPSMGKTAFALKQAKNMSDNDDVVNLHSLEMGKKENIKRLIVTAGSINAQKIKAARRDFASEDWGKLSMAIGEISNSNINIFDKAGQSVNYIWSKTRQTKRKNPGKRVIVMIDYLQLLEPAKANDSRTNQISQISRDLKKMARELDVVVIALSQLSRQVEQRQDKRPMLSDLRESGQLEQDADIIEFLYRDDYYDKESESKNIVEVIIAKHRDGPVGTVSLAFIKEYGNFVNLERRFDDR | soluble |
| MSLRVTEPEMDQNLRDAIRMVINELTSSSGEVSQWTLREITARYRNLYRIKDPFVLDYYINRYMSGLRSVYPLYINDAIERIMSNGYDRPVIVQYNGKYYETNITLKREDLDSIAIRVSQMMGKKISSGSPIAYGNLQNFRSIVTFGDDVTPFGSSLYLERRHVVADPEAMSSMKDPMVSAYLIMALENMRSIMIIGPDSPMKIAIIYHLIRMIGSEKKIAYIGENGRFDFPRNIVYMMPRERTVFSSEISRTDLINTALRQRPDFIVVNGLTARELPAAVQAITTGHPTLSSMDIDSIENFSSLFSDPSTGLSKDMISLFDVVIEIADNGEYVKAIYEYDRLEGQEVLYNVPFSADRKRKLVFSGYSGIFRRMSKVIGEDSFRQALENRMKELDGGEGHHHHHH | soluble |
